Experimental data taken from patent EP2747783B1.

Experiments:
[1] = molecular target: human c-Met, cell membrane expressed (A549, BxPC-3, myeloma cells) (human) (UniProt P08581); test: cell-based or functional assay
[2] = molecular target: human c-Met, cell membrane expressed (A549, BxPC-3, myeloma cells) (human) (UniProt P08581); test: flow cytometry; competition with 1 nM biotinylated hHGF on A549 cells
[3] = molecular target: cynomolgus c-Met expressed on BAF3 cells (cynomolgus monkey); test: flow cytometry; competition with 0.5 nM biotinylated HGF on BAF3 cells with cynomolgus c-Met
cynomolgus c-Met expressed on BAF3 cells (cynomolgus monkey), sequence (A0M8R7 25-1381 S170N/I621T limits assumed, form in doubt): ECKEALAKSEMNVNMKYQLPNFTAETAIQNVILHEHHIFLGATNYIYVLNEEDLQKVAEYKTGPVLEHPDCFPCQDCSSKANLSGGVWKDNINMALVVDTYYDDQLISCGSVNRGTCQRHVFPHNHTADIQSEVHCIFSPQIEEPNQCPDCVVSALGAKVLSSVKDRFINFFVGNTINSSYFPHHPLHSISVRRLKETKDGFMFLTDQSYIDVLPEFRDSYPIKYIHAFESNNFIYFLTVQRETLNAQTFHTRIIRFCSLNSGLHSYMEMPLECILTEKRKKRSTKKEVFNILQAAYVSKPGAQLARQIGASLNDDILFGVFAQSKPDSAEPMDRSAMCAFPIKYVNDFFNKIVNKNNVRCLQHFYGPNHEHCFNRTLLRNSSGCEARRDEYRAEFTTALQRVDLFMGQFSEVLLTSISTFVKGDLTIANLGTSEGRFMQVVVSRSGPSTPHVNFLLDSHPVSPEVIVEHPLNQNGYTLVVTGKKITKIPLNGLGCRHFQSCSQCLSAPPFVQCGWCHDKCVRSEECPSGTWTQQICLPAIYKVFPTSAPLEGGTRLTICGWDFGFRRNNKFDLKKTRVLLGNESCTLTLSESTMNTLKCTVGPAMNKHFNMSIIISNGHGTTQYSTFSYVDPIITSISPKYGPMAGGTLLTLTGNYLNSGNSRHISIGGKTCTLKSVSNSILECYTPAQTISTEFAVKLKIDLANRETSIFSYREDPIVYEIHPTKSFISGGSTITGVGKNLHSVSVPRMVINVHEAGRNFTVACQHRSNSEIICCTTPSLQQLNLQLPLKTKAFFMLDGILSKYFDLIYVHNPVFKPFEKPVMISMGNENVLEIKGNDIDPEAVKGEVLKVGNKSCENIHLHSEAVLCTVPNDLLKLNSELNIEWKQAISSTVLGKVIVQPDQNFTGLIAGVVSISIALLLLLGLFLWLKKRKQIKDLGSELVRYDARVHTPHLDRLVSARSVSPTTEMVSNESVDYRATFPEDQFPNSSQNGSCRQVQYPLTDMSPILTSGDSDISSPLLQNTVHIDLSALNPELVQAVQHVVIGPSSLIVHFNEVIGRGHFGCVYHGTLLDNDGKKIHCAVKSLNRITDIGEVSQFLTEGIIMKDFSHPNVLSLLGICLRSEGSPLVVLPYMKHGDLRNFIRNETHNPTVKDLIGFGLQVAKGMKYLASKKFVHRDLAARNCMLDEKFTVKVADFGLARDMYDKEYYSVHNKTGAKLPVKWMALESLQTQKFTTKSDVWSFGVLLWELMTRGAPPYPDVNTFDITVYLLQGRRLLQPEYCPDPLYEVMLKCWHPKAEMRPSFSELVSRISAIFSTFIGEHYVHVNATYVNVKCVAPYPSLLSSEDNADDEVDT

human c-Met, cell membrane expressed (A549, BxPC-3, myeloma cells) (human), sequence (P08581 25-1390 limits assumed, form in doubt): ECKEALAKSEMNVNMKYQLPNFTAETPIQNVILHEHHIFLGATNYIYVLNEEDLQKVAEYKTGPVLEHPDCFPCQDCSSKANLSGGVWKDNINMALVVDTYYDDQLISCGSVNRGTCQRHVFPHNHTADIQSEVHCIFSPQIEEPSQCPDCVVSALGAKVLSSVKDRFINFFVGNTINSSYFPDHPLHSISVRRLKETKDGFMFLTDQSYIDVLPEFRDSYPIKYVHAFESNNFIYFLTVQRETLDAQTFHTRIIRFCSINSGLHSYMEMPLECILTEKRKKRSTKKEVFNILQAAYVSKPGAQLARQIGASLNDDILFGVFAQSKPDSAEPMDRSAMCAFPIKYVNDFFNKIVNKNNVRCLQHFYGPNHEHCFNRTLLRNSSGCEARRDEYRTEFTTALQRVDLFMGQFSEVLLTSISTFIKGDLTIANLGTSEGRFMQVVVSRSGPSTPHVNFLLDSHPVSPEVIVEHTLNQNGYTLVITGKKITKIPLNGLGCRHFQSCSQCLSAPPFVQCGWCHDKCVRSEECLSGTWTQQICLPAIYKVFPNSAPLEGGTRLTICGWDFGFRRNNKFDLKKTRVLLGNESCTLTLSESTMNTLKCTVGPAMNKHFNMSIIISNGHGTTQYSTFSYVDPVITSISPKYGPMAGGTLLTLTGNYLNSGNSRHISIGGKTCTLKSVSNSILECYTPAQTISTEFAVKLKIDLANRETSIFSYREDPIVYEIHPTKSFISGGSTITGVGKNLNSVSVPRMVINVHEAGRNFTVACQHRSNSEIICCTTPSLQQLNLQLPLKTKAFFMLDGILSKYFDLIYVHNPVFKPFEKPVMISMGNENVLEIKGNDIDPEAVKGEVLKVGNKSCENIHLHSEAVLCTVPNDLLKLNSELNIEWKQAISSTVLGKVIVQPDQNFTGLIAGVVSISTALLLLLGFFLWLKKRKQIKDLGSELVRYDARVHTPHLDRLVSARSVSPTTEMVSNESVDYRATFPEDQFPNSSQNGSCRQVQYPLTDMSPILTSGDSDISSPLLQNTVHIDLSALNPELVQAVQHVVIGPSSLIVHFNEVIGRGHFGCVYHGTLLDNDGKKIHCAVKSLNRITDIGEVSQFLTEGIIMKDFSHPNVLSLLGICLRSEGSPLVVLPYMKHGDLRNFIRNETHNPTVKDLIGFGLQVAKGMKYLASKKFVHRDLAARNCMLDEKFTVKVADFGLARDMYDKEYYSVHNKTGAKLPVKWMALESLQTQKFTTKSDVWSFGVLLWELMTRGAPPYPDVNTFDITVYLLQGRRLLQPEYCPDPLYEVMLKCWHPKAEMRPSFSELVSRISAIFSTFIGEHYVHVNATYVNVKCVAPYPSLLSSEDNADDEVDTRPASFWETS

c-Met phosphorylation without HGF (agonistic activity), A549 cells [1]	% inhibition [2]	% inhibition [3]	% inhibition, HGF-dependent A549 cell migration [1]	% inhibition, HGF-dependent c-Met phosphorylation, Experiment 1 [1]	% inhibition, HGF-dependent c-Met phosphorylation, Experiment 2 [1]	% inhibition, HGF-dependent proliferation of BxPC3 cells [1]	IC50, HGF-dependent c-Met phosphorylation, experiment 1 [1]	IC50, HGF-dependent c-Met phosphorylation, experiment 2 [1]	IC50 ratio to 5D5 Fab, HGF-dependent A549 cell migration [1]	IC50 ratio to 5D5 Fab, HGF-dependent c-Met phosphorylation, Experiment 1 [1]	IC50 ratio to 5D5 Fab, HGF-dependent c-Met phosphorylation, Experiment 2 [1]	IC50 ratio to 5D5 Fab, HGF-dependent proliferation of BxPC3 cells [1]	Substance
37 nM	100%	100%											anti-c-Met antibody 5D5
			112%	96.4%	95.9%	94.8%	10.4 nM	9.09 nM	1	1	1	1	anti-c-Met antibody fragment 5D5 Fab from mAb
